# Measured values as given in PMC6210743, “Starch Synthesis in Ostreococcus tauri: The Starch-Binding Domains of Starch Synthase III-B Are Essential for Catalytic Activity” (Frontiers in Plant Science, 2018).
# B1: OsttaSSIII-B (Ostreococcus tauri) (protein)
# chain: ASVETQLDGTDHPRVFTVPATPVAGGALRVFADVERADALRSASGWKLIGGYNAWRVGEFTKDMIKVKGTSWVYADVNVDERAFSMDFVFKGDGEAYEKDEGQDFSLTVDFGPTPEEFEEMLKVIEMENKARDEANAFIDGQMARARESGAGASIEKYGRVICKTASGKPGVAGSTERVMWNKAYNPIGGDTDKLVLHVGFNGWCAGVEAKFDLVRATGEIKDENNDWWVADVPLRADAYLLDFVVSDVEESAWDNNEQANFTLAVETSDEEWAVLRELKFEEIRAMAFKKELAEKERKERRAKADAEAKAKAIEVGLKQQSYIIHTEPKVPQVGKPLKVFYNKNNTNLSWSDEIYMTGGFNRWSHEAAIEPVKMTPPGAGEEFFTVTVPRVPTDAWMVDFVFSSGVGEGAQYDNKSGRDYHLPTRGSTASKPPLHVCHIAVEMAPIAKVGGLADVVTAIGRAIQDNGHLVEIILPKYQFFNNSVLLGGKEYETHFDWAGTTIRVEKCKVEGLQCFFIEPQNNMFQTDSVYGRNDDAHRFNFFCNAALEFLVRTARQPDILHCHDWSSAEVARAYWEHYHHNGLTKPKVAFTIHNMNYGQAKLGEAVHHSQVATTVSPSYAGEVRGSPVIGNNGHKFTGVRNGIDPEIWDPETDIFVPVKYNADNQEEGKAAARAELRQRAGMTGWDDKPIVGVVSRLTAQKGVHLIKHAAHHTLSRGGQFVLLGSAPDPKIQGEFNGLANQLGGEDTGFFFAFDEPLSHLMYAGCDVILVPSMFEPCGLTQMISMRYGAVPVVRATGGLRDTVFDVDNEKERAAWEVGGSTDWKTDGDMTNGFSFEGTDEGSLNYALDRCLDAFYNDREWFRSLQKRVMLQDWSWNRPANDYEELYYKMIGR
# B2: OsttaSSIII-B (Ostreococcus tauri; W122A/Y124A) (protein)
# chain: ASVETQLDGTDHPRVFTVPATPVAGGALRVFADVERADALRSASGWKLIGGYNAWRVGEFTKDMIKVKGTSAVAADVNVDERAFSMDFVFKGDGEAYEKDEGQDFSLTVDFGPTPEEFEEMLKVIEMENKARDEANAFIDGQMARARESGAGASIEKYGRVICKTASGKPGVAGSTERVMWNKAYNPIGGDTDKLVLHVGFNGWCAGVEAKFDLVRATGEIKDENNDWWVADVPLRADAYLLDFVVSDVEESAWDNNEQANFTLAVETSDEEWAVLRELKFEEIRAMAFKKELAEKERKERRAKADAEAKAKAIEVGLKQQSYIIHTEPKVPQVGKPLKVFYNKNNTNLSWSDEIYMTGGFNRWSHEAAIEPVKMTPPGAGEEFFTVTVPRVPTDAWMVDFVFSSGVGEGAQYDNKSGRDYHLPTRGSTASKPPLHVCHIAVEMAPIAKVGGLADVVTAIGRAIQDNGHLVEIILPKYQFFNNSVLLGGKEYETHFDWAGTTIRVEKCKVEGLQCFFIEPQNNMFQTDSVYGRNDDAHRFNFFCNAALEFLVRTARQPDILHCHDWSSAEVARAYWEHYHHNGLTKPKVAFTIHNMNYGQAKLGEAVHHSQVATTVSPSYAGEVRGSPVIGNNGHKFTGVRNGIDPEIWDPETDIFVPVKYNADNQEEGKAAARAELRQRAGMTGWDDKPIVGVVSRLTAQKGVHLIKHAAHHTLSRGGQFVLLGSAPDPKIQGEFNGLANQLGGEDTGFFFAFDEPLSHLMYAGCDVILVPSMFEPCGLTQMISMRYGAVPVVRATGGLRDTVFDVDNEKERAAWEVGGSTDWKTDGDMTNGFSFEGTDEGSLNYALDRCLDAFYNDREWFRSLQKRVMLQDWSWNRPANDYEELYYKMIGR
# B3: OsttaSSIII-B (Ostreococcus tauri; W279A) (protein)
# chain: ASVETQLDGTDHPRVFTVPATPVAGGALRVFADVERADALRSASGWKLIGGYNAWRVGEFTKDMIKVKGTSWVYADVNVDERAFSMDFVFKGDGEAYEKDEGQDFSLTVDFGPTPEEFEEMLKVIEMENKARDEANAFIDGQMARARESGAGASIEKYGRVICKTASGKPGVAGSTERVMWNKAYNPIGGDTDKLVLHVGFNGWCAGVEAKFDLVRATGEIKDENNDWAVADVPLRADAYLLDFVVSDVEESAWDNNEQANFTLAVETSDEEWAVLRELKFEEIRAMAFKKELAEKERKERRAKADAEAKAKAIEVGLKQQSYIIHTEPKVPQVGKPLKVFYNKNNTNLSWSDEIYMTGGFNRWSHEAAIEPVKMTPPGAGEEFFTVTVPRVPTDAWMVDFVFSSGVGEGAQYDNKSGRDYHLPTRGSTASKPPLHVCHIAVEMAPIAKVGGLADVVTAIGRAIQDNGHLVEIILPKYQFFNNSVLLGGKEYETHFDWAGTTIRVEKCKVEGLQCFFIEPQNNMFQTDSVYGRNDDAHRFNFFCNAALEFLVRTARQPDILHCHDWSSAEVARAYWEHYHHNGLTKPKVAFTIHNMNYGQAKLGEAVHHSQVATTVSPSYAGEVRGSPVIGNNGHKFTGVRNGIDPEIWDPETDIFVPVKYNADNQEEGKAAARAELRQRAGMTGWDDKPIVGVVSRLTAQKGVHLIKHAAHHTLSRGGQFVLLGSAPDPKIQGEFNGLANQLGGEDTGFFFAFDEPLSHLMYAGCDVILVPSMFEPCGLTQMISMRYGAVPVVRATGGLRDTVFDVDNEKERAAWEVGGSTDWKTDGDMTNGFSFEGTDEGSLNYALDRCLDAFYNDREWFRSLQKRVMLQDWSWNRPANDYEELYYKMIGR
# B4: OsttaSSIII-B (Ostreococcus tauri; Y147A) (protein)
# chain: ASVETQLDGTDHPRVFTVPATPVAGGALRVFADVERADALRSASGWKLIGGYNAWRVGEFTKDMIKVKGTSWVYADVNVDERAFSMDFVFKGDGEAAEKDEGQDFSLTVDFGPTPEEFEEMLKVIEMENKARDEANAFIDGQMARARESGAGASIEKYGRVICKTASGKPGVAGSTERVMWNKAYNPIGGDTDKLVLHVGFNGWCAGVEAKFDLVRATGEIKDENNDWWVADVPLRADAYLLDFVVSDVEESAWDNNEQANFTLAVETSDEEWAVLRELKFEEIRAMAFKKELAEKERKERRAKADAEAKAKAIEVGLKQQSYIIHTEPKVPQVGKPLKVFYNKNNTNLSWSDEIYMTGGFNRWSHEAAIEPVKMTPPGAGEEFFTVTVPRVPTDAWMVDFVFSSGVGEGAQYDNKSGRDYHLPTRGSTASKPPLHVCHIAVEMAPIAKVGGLADVVTAIGRAIQDNGHLVEIILPKYQFFNNSVLLGGKEYETHFDWAGTTIRVEKCKVEGLQCFFIEPQNNMFQTDSVYGRNDDAHRFNFFCNAALEFLVRTARQPDILHCHDWSSAEVARAYWEHYHHNGLTKPKVAFTIHNMNYGQAKLGEAVHHSQVATTVSPSYAGEVRGSPVIGNNGHKFTGVRNGIDPEIWDPETDIFVPVKYNADNQEEGKAAARAELRQRAGMTGWDDKPIVGVVSRLTAQKGVHLIKHAAHHTLSRGGQFVLLGSAPDPKIQGEFNGLANQLGGEDTGFFFAFDEPLSHLMYAGCDVILVPSMFEPCGLTQMISMRYGAVPVVRATGGLRDTVFDVDNEKERAAWEVGGSTDWKTDGDMTNGFSFEGTDEGSLNYALDRCLDAFYNDREWFRSLQKRVMLQDWSWNRPANDYEELYYKMIGR
# B5: OsttaSSIII-B (Ostreococcus tauri; F138A) (protein)
# chain: ASVETQLDGTDHPRVFTVPATPVAGGALRVFADVERADALRSASGWKLIGGYNAWRVGEFTKDMIKVKGTSWVYADVNVDERAFSMDAVFKGDGEAYEKDEGQDFSLTVDFGPTPEEFEEMLKVIEMENKARDEANAFIDGQMARARESGAGASIEKYGRVICKTASGKPGVAGSTERVMWNKAYNPIGGDTDKLVLHVGFNGWCAGVEAKFDLVRATGEIKDENNDWWVADVPLRADAYLLDFVVSDVEESAWDNNEQANFTLAVETSDEEWAVLRELKFEEIRAMAFKKELAEKERKERRAKADAEAKAKAIEVGLKQQSYIIHTEPKVPQVGKPLKVFYNKNNTNLSWSDEIYMTGGFNRWSHEAAIEPVKMTPPGAGEEFFTVTVPRVPTDAWMVDFVFSSGVGEGAQYDNKSGRDYHLPTRGSTASKPPLHVCHIAVEMAPIAKVGGLADVVTAIGRAIQDNGHLVEIILPKYQFFNNSVLLGGKEYETHFDWAGTTIRVEKCKVEGLQCFFIEPQNNMFQTDSVYGRNDDAHRFNFFCNAALEFLVRTARQPDILHCHDWSSAEVARAYWEHYHHNGLTKPKVAFTIHNMNYGQAKLGEAVHHSQVATTVSPSYAGEVRGSPVIGNNGHKFTGVRNGIDPEIWDPETDIFVPVKYNADNQEEGKAAARAELRQRAGMTGWDDKPIVGVVSRLTAQKGVHLIKHAAHHTLSRGGQFVLLGSAPDPKIQGEFNGLANQLGGEDTGFFFAFDEPLSHLMYAGCDVILVPSMFEPCGLTQMISMRYGAVPVVRATGGLRDTVFDVDNEKERAAWEVGGSTDWKTDGDMTNGFSFEGTDEGSLNYALDRCLDAFYNDREWFRSLQKRVMLQDWSWNRPANDYEELYYKMIGR
# B6: OsttaSSIII-B (Ostreococcus tauri; W304A) (protein)
# chain: ASVETQLDGTDHPRVFTVPATPVAGGALRVFADVERADALRSASGWKLIGGYNAWRVGEFTKDMIKVKGTSWVYADVNVDERAFSMDFVFKGDGEAYEKDEGQDFSLTVDFGPTPEEFEEMLKVIEMENKARDEANAFIDGQMARARESGAGASIEKYGRVICKTASGKPGVAGSTERVMWNKAYNPIGGDTDKLVLHVGFNGWCAGVEAKFDLVRATGEIKDENNDWWVADVPLRADAYLLDFVVSDVEESAADNNEQANFTLAVETSDEEWAVLRELKFEEIRAMAFKKELAEKERKERRAKADAEAKAKAIEVGLKQQSYIIHTEPKVPQVGKPLKVFYNKNNTNLSWSDEIYMTGGFNRWSHEAAIEPVKMTPPGAGEEFFTVTVPRVPTDAWMVDFVFSSGVGEGAQYDNKSGRDYHLPTRGSTASKPPLHVCHIAVEMAPIAKVGGLADVVTAIGRAIQDNGHLVEIILPKYQFFNNSVLLGGKEYETHFDWAGTTIRVEKCKVEGLQCFFIEPQNNMFQTDSVYGRNDDAHRFNFFCNAALEFLVRTARQPDILHCHDWSSAEVARAYWEHYHHNGLTKPKVAFTIHNMNYGQAKLGEAVHHSQVATTVSPSYAGEVRGSPVIGNNGHKFTGVRNGIDPEIWDPETDIFVPVKYNADNQEEGKAAARAELRQRAGMTGWDDKPIVGVVSRLTAQKGVHLIKHAAHHTLSRGGQFVLLGSAPDPKIQGEFNGLANQLGGEDTGFFFAFDEPLSHLMYAGCDVILVPSMFEPCGLTQMISMRYGAVPVVRATGGLRDTVFDVDNEKERAAWEVGGSTDWKTDGDMTNGFSFEGTDEGSLNYALDRCLDAFYNDREWFRSLQKRVMLQDWSWNRPANDYEELYYKMIGR
# Substrate: Nc1ncnc2c1ncn2[C@@H]1O[C@H](COP(=O)(O)OP(=O)(O)O[C@H]2O[C@H](CO)[C@@H](O)[C@H](O)[C@H]2O)[C@@H](O)[C@H]1O
# Experiment: Pi release by alkaline phosphatase from ADP, Malachite Green assay
# Format: biochemical, Ostreococcus tauri
# Details: 2 mg/ml glycogen as acceptor, 50 mM BICINE pH 8.0, 30°C
# Excerpt: Pi release by alkaline phosphatase from ADP, Malachite Green assay on OsttaSSIII-B
protein,measurement,setting,value
B1,K0.5,nH 1.16,0.09 ± 0.02 mM
same,Vmax,nH 1.16,1.65 µmol/min/mg
B2,K0.5,nH 0.94,0.11 ± 0.01 mM
same,Vmax,nH 0.94,0.57 µmol/min/mg
B3,K0.5,nH 0.88,0.38 ± 0.11 mM
same,Vmax,nH 0.88,0.42 µmol/min/mg
B4,K0.5,nH 0.78,0.07 ± 0.01 mM
same,Vmax,nH 0.78,1.1 µmol/min/mg
B5,K0.5,nH 1.06,0.07 ± 0.02 mM
same,Vmax,nH 1.06,0.23 µmol/min/mg
B6,K0.5,nH 0.80,0.15 ± 0.03 mM
same,Vmax,nH 0.80,0.31 µmol/min/mg
